Measurements reported in patent US20060210984A1.

What was measured:
IFN-γ (human) [1] = molecular target: IFN-γ (human) (UniProt P01579); assay: sandwich microarray in flow cell, chemiluminescence, cytokine 1 ng/ml, divided by chip-specific PNA calibration factor; Chip 4
IFN-γ (human) [2] = molecular target: IFN-γ (human) (UniProt P01579); assay: sandwich microarray in flow cell, chemiluminescence, cytokine 1 ng/ml, divided by chip-specific PNA calibration factor; AVG of Chips 1-5
IFN-γ (human) [3] = molecular target: IFN-γ (human) (UniProt P01579); assay: sandwich microarray in flow cell, chemiluminescence, cytokine 1 ng/ml; Chip 3
IFN-γ (human) [4] = molecular target: IFN-γ (human) (UniProt P01579); assay: sandwich microarray in flow cell, chemiluminescence, cytokine 1 ng/ml; Chip 5
IFN-γ (human) [5] = molecular target: IFN-γ (human) (UniProt P01579); assay: sandwich microarray in flow cell, chemiluminescence, cytokine 1 ng/ml; Chip 2
IFN-γ (human) [6] = molecular target: IFN-γ (human) (UniProt P01579); assay: sandwich microarray in flow cell, chemiluminescence, cytokine 1 ng/ml, divided by chip-specific PNA calibration factor; Chip 2
IFN-γ (human) [7] = molecular target: IFN-γ (human) (UniProt P01579); assay: sandwich microarray in flow cell, chemiluminescence, cytokine 1 ng/ml; AVG of Chips 1-5
IFN-γ (human) [8] = molecular target: IFN-γ (human) (UniProt P01579); assay: sandwich microarray in flow cell, chemiluminescence, cytokine 1 ng/ml, divided by chip-specific PNA calibration factor; Chip 1
IFN-γ (human) [9] = molecular target: IFN-γ (human) (UniProt P01579); assay: sandwich microarray in flow cell, chemiluminescence, cytokine 1 ng/ml; Chip 4
IFN-γ (human) [10] = molecular target: IFN-γ (human) (UniProt P01579); assay: sandwich microarray in flow cell, chemiluminescence, cytokine 1 ng/ml, divided by chip-specific PNA calibration factor; Chip 3
IFN-γ (human) [11] = molecular target: IFN-γ (human) (UniProt P01579); assay: sandwich microarray in flow cell, chemiluminescence, cytokine 1 ng/ml, divided by chip-specific PNA calibration factor; Chip 5
IFN-γ (human) [12] = molecular target: IFN-γ (human) (UniProt P01579); assay: sandwich microarray in flow cell, chemiluminescence, cytokine 1 ng/ml; Chip 1
IL-1a (human) [13] = molecular target: IL-1a (human) (UniProt P01583); assay: sandwich microarray in flow cell, chemiluminescence, cytokine 1 ng/ml, divided by chip-specific PNA calibration factor; Chip 4
Sequence of UniProt P01583 (P01583 113-271 limits assumed): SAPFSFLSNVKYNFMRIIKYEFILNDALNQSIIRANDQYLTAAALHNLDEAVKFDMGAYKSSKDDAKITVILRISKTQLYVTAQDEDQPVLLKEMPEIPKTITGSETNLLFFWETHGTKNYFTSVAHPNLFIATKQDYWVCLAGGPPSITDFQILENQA

IL-1a (human) [14] = molecular target: IL-1a (human) (UniProt P01583); assay: sandwich microarray in flow cell, chemiluminescence, cytokine 1 ng/ml, divided by chip-specific PNA calibration factor; AVG of Chips 1-5
IL-1a (human) [15] = molecular target: IL-1a (human) (UniProt P01583); assay: sandwich microarray in flow cell, chemiluminescence, cytokine 1 ng/ml; Chip 3
IL-1a (human) [16] = molecular target: IL-1a (human) (UniProt P01583); assay: sandwich microarray in flow cell, chemiluminescence, cytokine 1 ng/ml; Chip 5
IL-1a (human) [17] = molecular target: IL-1a (human) (UniProt P01583); assay: sandwich microarray in flow cell, chemiluminescence, cytokine 1 ng/ml; Chip 2
IL-1a (human) [18] = molecular target: IL-1a (human) (UniProt P01583); assay: sandwich microarray in flow cell, chemiluminescence, cytokine 1 ng/ml, divided by chip-specific PNA calibration factor; Chip 2
IL-1a (human) [19] = molecular target: IL-1a (human) (UniProt P01583); assay: sandwich microarray in flow cell, chemiluminescence, cytokine 1 ng/ml; AVG of Chips 1-5
IL-1a (human) [20] = molecular target: IL-1a (human) (UniProt P01583); assay: sandwich microarray in flow cell, chemiluminescence, cytokine 1 ng/ml, divided by chip-specific PNA calibration factor; Chip 1
IL-1a (human) [21] = molecular target: IL-1a (human) (UniProt P01583); assay: sandwich microarray in flow cell, chemiluminescence, cytokine 1 ng/ml; Chip 4
IL-1a (human) [22] = molecular target: IL-1a (human) (UniProt P01583); assay: sandwich microarray in flow cell, chemiluminescence, cytokine 1 ng/ml, divided by chip-specific PNA calibration factor; Chip 3
IL-1a (human) [23] = molecular target: IL-1a (human) (UniProt P01583); assay: sandwich microarray in flow cell, chemiluminescence, cytokine 1 ng/ml, divided by chip-specific PNA calibration factor; Chip 5
IL-1a (human) [24] = molecular target: IL-1a (human) (UniProt P01583); assay: sandwich microarray in flow cell, chemiluminescence, cytokine 1 ng/ml; Chip 1

Sequence of UniProt P01579 (P01579 24-166 limits assumed): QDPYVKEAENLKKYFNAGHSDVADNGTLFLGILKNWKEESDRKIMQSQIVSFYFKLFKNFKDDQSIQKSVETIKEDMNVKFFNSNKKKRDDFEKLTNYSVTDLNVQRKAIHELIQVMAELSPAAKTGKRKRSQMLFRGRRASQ

MAb IFN-g (monoclonal capture antibody of the anti-human IFN-γ OptEIA matched pair, BD Biosciences-Pharmingen)
chemiluminescent spot intensity (Calibrated Data) (IFN-γ (human) [1]): 4.39
chemiluminescent spot intensity (Calibrated Data) (IFN-γ (human) [2]): 2.88
chemiluminescent spot intensity (Un-Calibrated Data) (IFN-γ (human) [3]): 10
chemiluminescent spot intensity (Un-Calibrated Data) (IFN-γ (human) [4]): 0
chemiluminescent spot intensity (Un-Calibrated Data) (IFN-γ (human) [5]): 0
chemiluminescent spot intensity (Calibrated Data) (IFN-γ (human) [6]): 0
chemiluminescent spot intensity (Un-Calibrated Data) (IFN-γ (human) [7]): 2.4
chemiluminescent spot intensity (Calibrated Data) (IFN-γ (human) [8]): 0
chemiluminescent spot intensity (Un-Calibrated Data) (IFN-γ (human) [9]): 2
chemiluminescent spot intensity (Calibrated Data) (IFN-γ (human) [10]): 10
chemiluminescent spot intensity (Calibrated Data) (IFN-γ (human) [11]): 0
chemiluminescent spot intensity (Un-Calibrated Data) (IFN-γ (human) [12]): 0

MAb IL-1a (monoclonal capture antibody of the anti-human IL-1a OptEIA matched pair, BD Biosciences-Pharmingen)
chemiluminescent spot intensity (Calibrated Data) (IL-1a (human) [13]): 301
chemiluminescent spot intensity (Calibrated Data) (IL-1a (human) [14]): 321
chemiluminescent spot intensity (Un-Calibrated Data) (IL-1a (human) [15]): 312
chemiluminescent spot intensity (Un-Calibrated Data) (IL-1a (human) [16]): 121
chemiluminescent spot intensity (Un-Calibrated Data) (IL-1a (human) [17]): 95
chemiluminescent spot intensity (Calibrated Data) (IL-1a (human) [18]): 325
chemiluminescent spot intensity (Un-Calibrated Data) (IL-1a (human) [19]): 168
chemiluminescent spot intensity (Calibrated Data) (IL-1a (human) [20]): 293
chemiluminescent spot intensity (Un-Calibrated Data) (IL-1a (human) [21]): 137
chemiluminescent spot intensity (Calibrated Data) (IL-1a (human) [22]): 312
chemiluminescent spot intensity (Calibrated Data) (IL-1a (human) [23]): 373
chemiluminescent spot intensity (Un-Calibrated Data) (IL-1a (human) [24]): 175
